Reference: patent publication US20250313612A1 (Adimab, published 2025)
Positions count from the first letter of the chain named.

B1: ADI-14531 (antibody, V domains shown)
VH: QVQLVQSGAEVKKPGSSVKVSCKASGVILTSVAVSWVRQAPGKGFEWMGGILPGFNKVRHAQDFENRATHTADASTNTVYMELSGLKSEDTAVYYCAIIDPQDCTRASCFWVNWLAPWGQGTLVTVSS
VL: ETTLTQSPGTLTLSPGERATLSCRASQSVPSRNLAWYQQKPGQAPRLIIYAASNRATDIPDRFSGSGSGTDFTLTISRLEPQDFAVYYCQQYETSPITFGQGTKVDIK
notes: IgG; also called Antibody Number 91
B2: ADI-14536 (antibody, V domains shown)
VH: QVQLVQSGGGVVQPGRSLRLSCAASGFSFSSYGMHWVRQAPGKGLEWVAAIFYHEIKDYYADSVNGRFSISRDNSKNTLYLEMYSLKVEDTAVYYCARDSGTLTGLPHDAFDIWGQGTTVTVSS
VL: DIQMTQSPSTLSASLGGRVTITCRASQSVTNRLAWYQHKPGKAPNLLIYKASTLEIGVPSRFSGSGSGTEFTLTISSLQPDDFATYYCQQYSSYSWTFGQGTKVEIK
notes: IgG; also called Antibody Number 96
B3: ADI-14530 (antibody, V domains shown)
VH: QVQLVQSGAEVKKPGSSVKVSCKVVGGSFSNYGIGWVRQAPGQGPEWMGGIIPAFKTAKYAKKFQDRVTITADESSSTAYMEVRGLRPDDTALYYCARPEGDFGDLKWVRSPFDYWGQGTLVTVSS
VL: ETTLTQSPATLSVSPGERVTLSCRASQDVSINLAWYQQKPGQAPRLLIYGASTRATDVPARFSGSGSGTDFTLTISSLQSEDFAFYYCQEYNDWPPQLTFGPGTKVEIK
notes: IgG; also called Antibody Number 90
B4: ADI-14534 (antibody, V domains shown)
VH: EVQLVESGGGVVQPGRSLRLSCAVSGFTFSNFGMHWVRQAPGKGLEWVAAISYDGRKRFQADSVKGRFTISRDNLKNTLNLQMNSLKTEDTAVYYCAKSSRLLDWLYNMDFWGQGTTVTVSS
VL: SYVLTQPPSVSVAPGKTARITCGGNILGSSSVHWFQQKAGQAPVLVIYYDSDRPSGIPERFSGSHSGDTATLTISRVEVGDEADYYCQVWDNSNSQGVFGGGTQLTVL
notes: IgG; also called Antibody Number 94
B5: ADI-14538 (antibody, V domains shown)
VH: B4 VH with R58T, T69I, L102F
VL: B4 VL with V3E, V12E, R19T, N25I, S29T, A39S, N94H
notes: IgG; also called Antibody Number 98
B6: ADI-14535 (antibody, V domains shown)
VH: QVQLQQWGPGLVKPSQTLSLTCSVSGASVKIGSNFWTWIRQRPGKGLEWIGAIHDTGTTYYNPSLEPQVIISTDTSQNQFSLRLTSVTAADTAVYYCARGRGYTYGWRYFDYWGQGTLVTVSS
VL: SYVLTQPPSVSVSPGQTARITCSGDALPKQYAFWYQHKAGQAPVLVIKKDTERPSGIPERFSGSISGTTATLIISGVQAEDEADYYCQSSDSSGNVVLFGGGTQLTVL
notes: IgG; also called Antibody Number 95
B7: ADI-14532 (antibody, V domains shown)
VH: EVQLVESGGGLVKPGGSLRLSCAASGFIFRNAWMSWVRQAPGKGLEWVGRIKRTSEGGSVDYATPVQGRFSISRDDSRKTLYLQMNSLETDDTAVYYCSTGPPYSYFDSSGYSVVDYWGLGTLVTVSS
VL: SYELTQPPSASGTPGQRVTISCSASSSNIGDNYFYWYQQLPGKAPTLLMYGSDQRSSGVPDRFSGSQSGTSASLAISGLRSEDEADYYCAAWDDSLSGPVFGGGTQLTVL
notes: IgG; also called Antibody Number 92
B8: ADI-14537 (antibody, V domains shown)
VH: B7 VH
VL: B7 VL with S1Q, Y2P, E3V, Q106K
notes: IgG; also called Antibody Number 97

Target: RSV F protein of subtype A (strain A2) on recombinant mKate-RSV (Respiratory syncytial virus subtype A …, UniProt P03420 26-574)
Test: cell-based or functional assay

First: B1
Second: B2
The “Neut IC50 (µg/ml) subtype A” value of the first is higher: greater than 10 µg/mL for the first, 0.56 µg/mL for the second.

B3 and B4 cannot be ordered by “Neut IC50 (µg/ml) subtype A” value: greater than 10 µg/mL for the first, greater than 10 µg/mL for the second.

B5 and B6 cannot be ordered by “Neut IC50 (µg/ml) subtype A” value: greater than 10 µg/mL for the first, greater than 10 µg/mL for the second.

Going from B7 to B8, the “Neut IC50 (µg/ml) subtype A” value rises from 0.168 µg/mL to 0.272 µg/mL (1.6-fold).

Target: RSV F protein of subtype B (18537) on recombinant mKate-RSV (Respiratory syncytial virus subtype B …, UniProt P13843 26-574)
Test: cell-based or functional assay

Going from B1 to B2, the “Neut IC50 (µg/ml) subtype B” value falls from greater than 10 µg/mL to 0.696 µg/mL.

B3 and B4 cannot be ordered by “Neut IC50 (µg/ml) subtype B” value: greater than 10 µg/mL for the first, greater than 10 µg/mL for the second.

B5 and B6 cannot be ordered by “Neut IC50 (µg/ml) subtype B” value: greater than 10 µg/mL for the first, greater than 10 µg/mL for the second.

B7 and B8 are within 1.5-fold of each other in “Neut IC50 (µg/ml) subtype B” value: 0.208 µg/mL for the first, 0.292 µg/mL for the second.

Target: T1, RSV F ectodomain stabilized in the postfusion conformation (F ΔFP), subtype A (Respiratory syncytial virus subtype A, UniProt P03420 26-109; P03420 147-524)
T1 construct: extracellular domain; trimer; also called Postfusion subtype A; Postfusion RSV F
Test: BLI, IgG on AHQ sensors, 100 nM antigen

First: B1
Second: B2
The Kd of the first is 31-fold higher: 12.6 nM for the first, 0.404 nM for the second. The second binds more tightly here.

Compared with B3, B4 is 47-fold lower in Kd: 47.2 nM for the first, 1 nM for the second.

Going from B5 to B6, the Kd falls from 0.35 nM to 0.23 nM (1.5-fold).

B7 and B8 are within 1.5-fold of each other in Kd: 0.224 nM for the first, 0.211 nM for the second.

Target: T2, RSV F ectodomain stabilized in the postfusion conformation (F ΔFP), subtype B (Respiratory syncytial virus subtype B, UniProt P13843 26-109; P13843 147-524)
T2 construct: extracellular domain; trimer; also called Postfusion subtype B
Test: BLI, IgG on AHQ sensors, 100 nM antigen

First: B1
Second: B2
The Kd of the first is 62-fold higher: 23.8 nM for the first, 0.382 nM for the second. The second binds more tightly here.

First: B3
Second: B4
The Kd of the first is 40-fold higher: 37.6 nM for the first, 0.93 nM for the second.

Compared with B5, B6 is 1.5-fold higher in Kd: 0.154 nM for the first, 0.238 nM for the second. The first binds more tightly here.

B7 and B8 are within 1.5-fold of each other in Kd: 0.136 nM for the first, 0.142 nM for the second.
